Reference: paper PMC12354254
Where “and” joins values, the source holds several entries; their conditions need not be identical. Equal entries are not always repeated.

Biological target: Brucella ovis PhyK (HWE-family histidine kinase, BOV_1602) (Brucella ovis)
Assay: SEC

For “Brucella ovis PhyK (HWE-family histidine kinase, BOV_1602) (enzyme)”, the stoichiometry N was 6 and 2.
